Test results as given in patent publication US20150276766A1.

Molecular target: T1, recombinant GDF11 (UniProt O95390)
T1 sequence (looked up): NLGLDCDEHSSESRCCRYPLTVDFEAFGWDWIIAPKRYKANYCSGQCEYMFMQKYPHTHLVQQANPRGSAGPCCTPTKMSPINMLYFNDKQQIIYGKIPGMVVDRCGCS
Test: sandwich ELISA, plates coated with mActRIIA-Fc, detected with anti-GDF8/11 antibodies

- lowest concentration detected in ELISA: 100 pg/mL
Substance: mActRIIA-Fc (extracellular domain of murine ActRIIA fused to a murine Fc domain; the murine counterpart of SEQ ID NO:7) (from UniProt P27038 21-135) (Fc fusion)
